We go through one molecule from article PMC4822050.

One series addresses T1, SRA-Spacer-652 (human, UniProt Q96T88 414-652).
T1 sequence: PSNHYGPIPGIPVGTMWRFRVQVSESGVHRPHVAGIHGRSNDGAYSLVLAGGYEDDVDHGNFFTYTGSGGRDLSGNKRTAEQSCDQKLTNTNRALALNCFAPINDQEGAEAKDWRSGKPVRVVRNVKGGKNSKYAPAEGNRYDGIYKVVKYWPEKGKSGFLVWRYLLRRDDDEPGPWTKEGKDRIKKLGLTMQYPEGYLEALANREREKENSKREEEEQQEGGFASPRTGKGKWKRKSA
Nature of the series: FP; ITC: 10 mM HEPES pH 8.0, 100 mM NaCl, 18 C; EMSA: 20 mM HEPES pH 7.5, 100 mM NaCl, 8% glycerol, 1 mM DTT, on ice; pull-down: 20 mM HEPES-NaOH pH 8.0, 100 mM NaC.

The next series concerns the target T2, SRA-Spacer-642 (human, UniProt Q96T88 414-642).
T2 sequence: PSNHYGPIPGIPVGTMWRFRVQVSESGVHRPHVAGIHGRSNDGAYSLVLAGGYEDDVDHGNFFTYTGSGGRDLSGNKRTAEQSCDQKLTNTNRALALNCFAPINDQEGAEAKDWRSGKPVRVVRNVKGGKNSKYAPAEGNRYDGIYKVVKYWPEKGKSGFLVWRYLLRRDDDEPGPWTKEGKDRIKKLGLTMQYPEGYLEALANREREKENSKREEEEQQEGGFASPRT
The series is described as above.

A further series concerns the target T3, SRA-Spacer-661 (human, UniProt Q96T88 414-661).
T3 sequence: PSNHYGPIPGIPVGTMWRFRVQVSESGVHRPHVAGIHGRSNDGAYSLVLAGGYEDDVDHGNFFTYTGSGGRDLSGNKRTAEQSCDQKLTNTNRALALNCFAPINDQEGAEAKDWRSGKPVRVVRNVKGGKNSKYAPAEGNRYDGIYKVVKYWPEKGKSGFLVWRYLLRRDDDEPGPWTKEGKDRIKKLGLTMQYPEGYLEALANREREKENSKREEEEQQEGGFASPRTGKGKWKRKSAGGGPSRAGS
The description is as above.

The next series addresses T4, UHRF1 delta627-674 (human, UniProt Q96T88 1-793, del627-674).
T4 sequence: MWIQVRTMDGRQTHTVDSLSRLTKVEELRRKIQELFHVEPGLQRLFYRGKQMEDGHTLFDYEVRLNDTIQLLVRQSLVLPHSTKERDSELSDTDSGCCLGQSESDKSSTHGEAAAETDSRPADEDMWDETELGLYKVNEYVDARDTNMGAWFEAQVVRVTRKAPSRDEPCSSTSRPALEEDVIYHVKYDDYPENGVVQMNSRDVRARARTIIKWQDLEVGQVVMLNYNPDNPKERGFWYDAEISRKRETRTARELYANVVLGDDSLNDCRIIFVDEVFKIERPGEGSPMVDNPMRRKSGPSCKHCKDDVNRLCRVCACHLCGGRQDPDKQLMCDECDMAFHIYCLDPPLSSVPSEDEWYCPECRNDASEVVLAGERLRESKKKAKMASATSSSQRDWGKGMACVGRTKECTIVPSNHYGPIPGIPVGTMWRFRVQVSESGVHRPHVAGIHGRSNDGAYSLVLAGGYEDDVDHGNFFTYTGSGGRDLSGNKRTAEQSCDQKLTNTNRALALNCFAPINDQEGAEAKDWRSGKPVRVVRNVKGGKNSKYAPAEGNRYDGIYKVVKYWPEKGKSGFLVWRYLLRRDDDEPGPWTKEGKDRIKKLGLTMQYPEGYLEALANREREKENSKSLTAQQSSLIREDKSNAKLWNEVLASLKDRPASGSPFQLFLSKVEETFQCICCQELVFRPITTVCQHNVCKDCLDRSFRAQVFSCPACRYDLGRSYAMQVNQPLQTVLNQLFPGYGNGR
The series is described as above.

For a further series, the target named is T5, SRA-Spacer (human, UniProt Q96T88 414-674).
T5 sequence: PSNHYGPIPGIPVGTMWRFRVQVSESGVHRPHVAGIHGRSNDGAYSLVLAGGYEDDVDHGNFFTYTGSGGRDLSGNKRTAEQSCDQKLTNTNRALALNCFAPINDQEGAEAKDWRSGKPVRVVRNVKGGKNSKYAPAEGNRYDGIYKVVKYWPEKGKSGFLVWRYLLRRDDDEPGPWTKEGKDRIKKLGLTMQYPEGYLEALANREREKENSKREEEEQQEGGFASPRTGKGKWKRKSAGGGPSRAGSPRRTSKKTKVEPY
Nature of the series: FP; DNA length series; ITC: 10 mM HEPES pH 8.0, 100 mM NaCl, 18 C; EMSA: 20 mM HEPES pH 7.5, 100 mM NaCl, 8% glycerol, 1 mM DTT, on ice; pull-down: 20 mM HEPES-NaOH pH 8.0, 100 mM NaC.

B1: FAM-12bp-HM-DNA (dsDNA)
DNA 1: CCATGCGCTGAC
DNA 2: GTCAGCGCATGG
modifications: 5-methyl-dC at position 6 of strand 2 (GTCAGXGCATGG)
On to B1, for which the Kd came to 1870 ± 330 nM in the series with SRA-Spacer-652; 6110 ± 1150 nM with SRA-Spacer-642; 380 ± 60 nM in the series with SRA-Spacer-661; 4940 ± 1090 nM with UHRF1 delta627-674; 340 ± 90 nM in the series with SRA-Spacer.
